B1: RING finger and CHY zinc finger domain-containing protein 1 (Homo sapiens), Q96PM5 (parent)
chain: MAATAREDGASGQERGQRGCEHYDRGCLLKAPCCDKLYTCRLCHDNNEDHQLDRFKVKEVQCINCEKIQHAQQTCEECSTLFGEYYCDICHLFDKDKKQYHCENCGICRIGPKEDFFHCLKCNLCLAMNLQGRHKCIENVSRQNCPICLEDIHTSRVVAHVLPCGHLLHRTCYEEMLKEGYRCPLCMHSALDMTRYWRQLDDEVAQTPMPSEYQNMTVDILCNDCNGRSTVQFHILGMKCKICESYNTAQAGGRRISLDQQ

Variants of: B1
Conditions: with kcc2a_human CAMK2A

effect of a mutation on the interaction | Variant
disrupting interaction | T154A
disrupting interaction | S155A

From IntAct's records for PubMed 17568776
